From patent US20230357348A1 (AstraZeneca / MedImmune, published 2023)
Starred links: 1 amine or outer side, 2 acyl side, 3 side chain; linkers in the order of their positions; H or OH if unused. Non-standard residues stand in square brackets, D forms with d. Groups on a side chain read outwards from the residue. No end group written: not given here. *: point of attachment. C20 diacid = O=C(O)CCCCCCCCCCCCCCCCCCC(=O)*; C18 diacid = O=C(O)CCCCCCCCCCCCCCCCC(=O)*; γGlu = O=C(O)[C@H](CCC(=O)[*:2])N[*:1]; αMeF = C[C@](N)(Cc1ccccc1)C(=O)O; AEEA = NCCOCCOCC(=O)O; Aib = CC(C)(N)C(=O)O

B1: Peptide 407 (peptide)
peptide: H[Aib]QGTFTSDVSK[αMeF]LDTK([AEEA-AEEA-γGlu-C20 diacid])RAQDFVRWLEA[Aib]G-OH
modifications: N-terminus assumed
SMILES: CC(C)C[C@H](NC(=O)[C@H](Cc1c[nH]c2ccccc12)NC(=O)[C@H](CCCNC(=N)N)NC(=O)[C@@H](NC(=O)[C@H](Cc1ccccc1)NC(=O)[C@H](CC(=O)O)NC(=O)[C@H](CCC(N)=O)NC(=O)[C@H](C)NC(=O)[C@H](CCCNC(=N)N)NC(=O)[C@H](CCCCNC(=O)COCCOCCNC(=O)COCCOCCNC(=O)CC[C@H](NC(=O)CCCCCCCCCCCCCCCCCCC(=O)O)C(=O)O)NC(=O)[C@@H](NC(=O)[C@H](CC(=O)O)NC(=O)[C@H](CC(C)C)NC(=O)[C@](C)(Cc1ccccc1)NC(=O)[C@H](CCCCN)NC(=O)[C@H](CO)NC(=O)[C@@H](NC(=O)[C@H](CC(=O)O)NC(=O)[C@H](CO)NC(=O)[C@@H](NC(=O)[C@H](Cc1ccccc1)NC(=O)[C@@H](NC(=O)CNC(=O)[C@H](CCC(N)=O)NC(=O)C(C)(C)NC(=O)[C@@H](N)Cc1c[nH]cn1)[C@@H](C)O)[C@@H](C)O)C(C)C)[C@@H](C)O)C(C)C)C(=O)N[C@@H](CCC(=O)O)C(=O)N[C@@H](C)C(=O)NC(C)(C)C(=O)NCC(=O)O
B2: Peptide 458 (peptide)
peptide: H[Aib]QGTFTSDVSK[αMeF]LDTK([AEEA-AEEA-γGlu-γGlu-C20 diacid])RARDFVQWLLE[Aib]G-NH2
B3: Peptide 408 (peptide)
peptide: H[Aib]QGTFTSDVSK[αMeF]LDTK([AEEA-AEEA-γGlu-γGlu-C20 diacid])RAQDFVRWLEA[Aib]G-OH
modifications: N-terminus assumed
SMILES: CC(C)C[C@H](NC(=O)[C@H](Cc1c[nH]c2ccccc12)NC(=O)[C@H](CCCNC(=N)N)NC(=O)[C@@H](NC(=O)[C@H](Cc1ccccc1)NC(=O)[C@H](CC(=O)O)NC(=O)[C@H](CCC(N)=O)NC(=O)[C@H](C)NC(=O)[C@H](CCCNC(=N)N)NC(=O)[C@H](CCCCNC(=O)COCCOCCNC(=O)COCCOCCNC(=O)CC[C@H](NC(=O)CC[C@H](NC(=O)CCCCCCCCCCCCCCCCCCC(=O)O)C(=O)O)C(=O)O)NC(=O)[C@@H](NC(=O)[C@H](CC(=O)O)NC(=O)[C@H](CC(C)C)NC(=O)[C@](C)(Cc1ccccc1)NC(=O)[C@H](CCCCN)NC(=O)[C@H](CO)NC(=O)[C@@H](NC(=O)[C@H](CC(=O)O)NC(=O)[C@H](CO)NC(=O)[C@@H](NC(=O)[C@H](Cc1ccccc1)NC(=O)[C@@H](NC(=O)CNC(=O)[C@H](CCC(N)=O)NC(=O)C(C)(C)NC(=O)[C@@H](N)Cc1c[nH]cn1)[C@@H](C)O)[C@@H](C)O)C(C)C)[C@@H](C)O)C(C)C)C(=O)N[C@@H](CCC(=O)O)C(=O)N[C@@H](C)C(=O)NC(C)(C)C(=O)NCC(=O)O
B4: Peptide 463 (peptide)
peptide: H[Aib]QGTFTSDVSK[αMeF]LDSK([AEEA-AEEA-γGlu-γGlu-C18 diacid])RAQDFVQWLL[Aib]T-NH2
modifications: N-terminus assumed
SMILES: CC(C)C[C@H](NC(=O)[C@H](Cc1c[nH]c2ccccc12)NC(=O)[C@H](CCC(N)=O)NC(=O)[C@@H](NC(=O)[C@H](Cc1ccccc1)NC(=O)[C@H](CC(=O)O)NC(=O)[C@H](CCC(N)=O)NC(=O)[C@H](C)NC(=O)[C@H](CCCNC(=N)N)NC(=O)[C@H](CCCCNC(=O)COCCOCCNC(=O)COCCOCCNC(=O)CC[C@H](NC(=O)CC[C@H](NC(=O)CCCCCCCCCCCCCCCCC(=O)O)C(=O)O)C(=O)O)NC(=O)[C@H](CO)NC(=O)[C@H](CC(=O)O)NC(=O)[C@H](CC(C)C)NC(=O)[C@](C)(Cc1ccccc1)NC(=O)[C@H](CCCCN)NC(=O)[C@H](CO)NC(=O)[C@@H](NC(=O)[C@H](CC(=O)O)NC(=O)[C@H](CO)NC(=O)[C@@H](NC(=O)[C@H](Cc1ccccc1)NC(=O)[C@@H](NC(=O)CNC(=O)[C@H](CCC(N)=O)NC(=O)C(C)(C)NC(=O)[C@@H](N)Cc1c[nH]cn1)[C@@H](C)O)[C@@H](C)O)C(C)C)C(C)C)C(=O)N[C@@H](CC(C)C)C(=O)NC(C)(C)C(=O)N[C@H](C(N)=O)[C@@H](C)O
B5: Peptide 140 (peptide)
peptide: H[Aib]QGTFTSDVSK[αMeF]LDTK([AEEA-AEEA-γGlu-C18 diacid])RAQDFVRWLLE[Aib]G-OH
modifications: N-terminus assumed
SMILES: CC(C)C[C@H](NC(=O)[C@H](Cc1c[nH]c2ccccc12)NC(=O)[C@H](CCCNC(=N)N)NC(=O)[C@@H](NC(=O)[C@H](Cc1ccccc1)NC(=O)[C@H](CC(=O)O)NC(=O)[C@H](CCC(N)=O)NC(=O)[C@H](C)NC(=O)[C@H](CCCNC(=N)N)NC(=O)[C@H](CCCCNC(=O)COCCOCCNC(=O)COCCOCCNC(=O)CC[C@H](NC(=O)CCCCCCCCCCCCCCCCC(=O)O)C(=O)O)NC(=O)[C@@H](NC(=O)[C@H](CC(=O)O)NC(=O)[C@H](CC(C)C)NC(=O)[C@](C)(Cc1ccccc1)NC(=O)[C@H](CCCCN)NC(=O)[C@H](CO)NC(=O)[C@@H](NC(=O)[C@H](CC(=O)O)NC(=O)[C@H](CO)NC(=O)[C@@H](NC(=O)[C@H](Cc1ccccc1)NC(=O)[C@@H](NC(=O)CNC(=O)[C@H](CCC(N)=O)NC(=O)C(C)(C)NC(=O)[C@@H](N)Cc1c[nH]cn1)[C@@H](C)O)[C@@H](C)O)C(C)C)[C@@H](C)O)C(C)C)C(=O)N[C@@H](CC(C)C)C(=O)N[C@@H](CCC(=O)O)C(=O)NC(C)(C)C(=O)NCC(=O)O
B6: Peptide 461 (peptide)
peptide: H[Aib]QGTFTSDVSK[αMeF]LDRK([AEEA-AEEA-γGlu-C18 diacid])RAQDFVRWLLAE-NH2
modifications: N-terminus assumed
SMILES: CC(C)C[C@H](NC(=O)[C@H](CC(C)C)NC(=O)[C@H](Cc1c[nH]c2ccccc12)NC(=O)[C@H](CCCNC(=N)N)NC(=O)[C@@H](NC(=O)[C@H](Cc1ccccc1)NC(=O)[C@H](CC(=O)O)NC(=O)[C@H](CCC(N)=O)NC(=O)[C@H](C)NC(=O)[C@H](CCCNC(=N)N)NC(=O)[C@H](CCCCNC(=O)COCCOCCNC(=O)COCCOCCNC(=O)CC[C@H](NC(=O)CCCCCCCCCCCCCCCCC(=O)O)C(=O)O)NC(=O)[C@H](CCCNC(=N)N)NC(=O)[C@H](CC(=O)O)NC(=O)[C@H](CC(C)C)NC(=O)[C@](C)(Cc1ccccc1)NC(=O)[C@H](CCCCN)NC(=O)[C@H](CO)NC(=O)[C@@H](NC(=O)[C@H](CC(=O)O)NC(=O)[C@H](CO)NC(=O)[C@@H](NC(=O)[C@H](Cc1ccccc1)NC(=O)[C@@H](NC(=O)CNC(=O)[C@H](CCC(N)=O)NC(=O)C(C)(C)NC(=O)[C@@H](N)Cc1c[nH]cn1)[C@@H](C)O)[C@@H](C)O)C(C)C)C(C)C)C(=O)N[C@@H](C)C(=O)N[C@@H](CCC(=O)O)C(N)=O

What follows are binders tested against human glucagon receptor (hGCGR) (human, UniProt P47871 26-477) (assay: cell-based or functional assay).
Sequence of human glucagon receptor (hGCGR) (P47871 26-477): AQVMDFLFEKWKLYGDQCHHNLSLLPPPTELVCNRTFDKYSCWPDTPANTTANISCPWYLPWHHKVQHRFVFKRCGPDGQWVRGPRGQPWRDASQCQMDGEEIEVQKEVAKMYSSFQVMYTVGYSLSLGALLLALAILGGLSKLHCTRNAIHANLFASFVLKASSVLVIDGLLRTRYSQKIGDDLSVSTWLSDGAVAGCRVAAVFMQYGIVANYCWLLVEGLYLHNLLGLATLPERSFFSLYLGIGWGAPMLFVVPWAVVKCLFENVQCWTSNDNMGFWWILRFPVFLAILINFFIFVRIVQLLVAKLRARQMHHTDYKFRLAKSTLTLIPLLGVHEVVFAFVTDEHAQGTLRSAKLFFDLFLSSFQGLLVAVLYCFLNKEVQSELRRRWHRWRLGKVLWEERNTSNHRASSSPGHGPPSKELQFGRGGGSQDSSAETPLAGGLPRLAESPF
B1 was tested, and the “hGluc-R EC50 (pM)” value was 462 pM.
For B2, the “hGluc-R EC50 (pM)” value was 385 pM.
B3 was tested, and the “hGluc-R EC50 (pM)” value was 828 pM.

What follows are binders tested against human GLP-1 receptor (hGLP-1R) (human, UniProt P43220 24-463) (assay: cell-based or functional assay).
B4 was tested, and the “hGLP-1R EC50 (pM)” value was 274 pM.
B5 was tested, and the “hGLP-1R EC50 (pM)” value was 22.7 pM.
With B6 the “hGLP-1R EC50 (pM)” value was 167 pM.
B1 was tested, and the “hGLP-1R EC50 (pM)” value was 209 pM.
With B3 the “hGLP-1R EC50 (pM)” value was 370 pM.
